From patent US20140010832A1 come the findings set out here.

Some targets named below: Vitronectin; Tenascin C; Fibronectin; Fibrinogen; Osteopontin.
Experiment in all cases: ELISA; cytokine coated, ECM protein 0.02 to 320 nM, KD by non-linear fit
(ELISA stands for enzyme-linked immunosorbent assay.)

Fibronectin, sequence (P02751 32-2477): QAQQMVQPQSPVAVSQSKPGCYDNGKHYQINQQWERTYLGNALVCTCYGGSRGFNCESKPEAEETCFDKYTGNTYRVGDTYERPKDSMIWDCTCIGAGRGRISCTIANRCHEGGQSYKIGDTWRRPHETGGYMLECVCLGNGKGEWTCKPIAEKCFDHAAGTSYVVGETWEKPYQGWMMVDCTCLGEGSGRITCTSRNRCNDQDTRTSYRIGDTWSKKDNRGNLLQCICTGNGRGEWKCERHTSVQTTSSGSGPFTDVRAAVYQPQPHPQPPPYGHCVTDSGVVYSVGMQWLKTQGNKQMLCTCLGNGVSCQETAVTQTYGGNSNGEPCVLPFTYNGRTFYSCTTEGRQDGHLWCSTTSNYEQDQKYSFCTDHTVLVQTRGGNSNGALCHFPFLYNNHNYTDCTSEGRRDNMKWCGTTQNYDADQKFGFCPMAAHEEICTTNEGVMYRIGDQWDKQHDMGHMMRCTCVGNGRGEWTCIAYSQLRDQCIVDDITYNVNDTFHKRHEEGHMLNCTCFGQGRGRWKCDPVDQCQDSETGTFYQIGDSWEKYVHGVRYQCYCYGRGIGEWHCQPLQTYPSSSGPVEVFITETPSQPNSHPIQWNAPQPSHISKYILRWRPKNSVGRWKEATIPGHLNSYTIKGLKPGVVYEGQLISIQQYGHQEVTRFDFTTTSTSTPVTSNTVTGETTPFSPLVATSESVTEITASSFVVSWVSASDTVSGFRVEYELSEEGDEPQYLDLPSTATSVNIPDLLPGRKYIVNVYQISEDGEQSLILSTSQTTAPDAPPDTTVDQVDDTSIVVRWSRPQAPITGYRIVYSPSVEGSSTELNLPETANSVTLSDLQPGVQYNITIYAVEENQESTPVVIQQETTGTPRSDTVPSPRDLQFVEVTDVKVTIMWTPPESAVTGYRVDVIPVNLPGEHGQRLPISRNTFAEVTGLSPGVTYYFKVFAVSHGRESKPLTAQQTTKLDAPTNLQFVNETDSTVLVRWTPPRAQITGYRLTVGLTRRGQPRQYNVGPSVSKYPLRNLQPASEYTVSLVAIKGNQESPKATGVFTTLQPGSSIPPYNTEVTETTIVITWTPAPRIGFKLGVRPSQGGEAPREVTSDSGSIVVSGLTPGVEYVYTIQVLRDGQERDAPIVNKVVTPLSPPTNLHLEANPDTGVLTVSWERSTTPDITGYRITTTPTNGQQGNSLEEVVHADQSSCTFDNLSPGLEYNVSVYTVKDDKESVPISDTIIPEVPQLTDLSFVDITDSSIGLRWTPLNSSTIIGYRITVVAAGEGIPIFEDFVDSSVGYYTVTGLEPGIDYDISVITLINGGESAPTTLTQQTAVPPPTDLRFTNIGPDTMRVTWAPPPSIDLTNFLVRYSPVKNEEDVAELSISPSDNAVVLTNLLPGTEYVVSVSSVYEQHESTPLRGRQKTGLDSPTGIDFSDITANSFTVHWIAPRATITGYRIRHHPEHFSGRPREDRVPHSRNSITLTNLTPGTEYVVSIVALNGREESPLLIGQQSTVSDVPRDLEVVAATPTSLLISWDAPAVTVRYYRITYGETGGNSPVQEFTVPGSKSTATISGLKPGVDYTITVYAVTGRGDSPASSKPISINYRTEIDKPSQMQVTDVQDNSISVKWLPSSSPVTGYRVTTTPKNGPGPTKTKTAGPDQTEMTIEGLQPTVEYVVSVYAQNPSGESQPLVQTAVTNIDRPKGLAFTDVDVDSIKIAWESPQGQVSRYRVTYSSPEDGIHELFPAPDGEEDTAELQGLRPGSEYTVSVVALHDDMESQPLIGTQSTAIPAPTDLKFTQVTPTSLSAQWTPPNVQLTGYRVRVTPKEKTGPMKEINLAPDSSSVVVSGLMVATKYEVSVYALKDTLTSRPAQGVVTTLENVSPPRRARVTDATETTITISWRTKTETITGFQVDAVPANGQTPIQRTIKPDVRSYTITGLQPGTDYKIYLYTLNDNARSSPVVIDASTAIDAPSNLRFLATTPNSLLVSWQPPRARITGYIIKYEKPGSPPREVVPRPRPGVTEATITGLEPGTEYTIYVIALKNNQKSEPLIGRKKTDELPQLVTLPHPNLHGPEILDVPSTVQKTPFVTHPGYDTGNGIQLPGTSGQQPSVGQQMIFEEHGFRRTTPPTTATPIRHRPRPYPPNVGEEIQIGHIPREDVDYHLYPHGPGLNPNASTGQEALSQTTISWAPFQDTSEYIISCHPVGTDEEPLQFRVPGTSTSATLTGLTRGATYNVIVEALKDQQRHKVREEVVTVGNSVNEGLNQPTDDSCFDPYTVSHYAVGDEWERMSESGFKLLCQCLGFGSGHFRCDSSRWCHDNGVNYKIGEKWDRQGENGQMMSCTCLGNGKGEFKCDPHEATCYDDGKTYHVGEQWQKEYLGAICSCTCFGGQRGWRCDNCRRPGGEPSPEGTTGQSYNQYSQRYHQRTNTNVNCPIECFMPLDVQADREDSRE
Vitronectin, sequence (P04004 20-478): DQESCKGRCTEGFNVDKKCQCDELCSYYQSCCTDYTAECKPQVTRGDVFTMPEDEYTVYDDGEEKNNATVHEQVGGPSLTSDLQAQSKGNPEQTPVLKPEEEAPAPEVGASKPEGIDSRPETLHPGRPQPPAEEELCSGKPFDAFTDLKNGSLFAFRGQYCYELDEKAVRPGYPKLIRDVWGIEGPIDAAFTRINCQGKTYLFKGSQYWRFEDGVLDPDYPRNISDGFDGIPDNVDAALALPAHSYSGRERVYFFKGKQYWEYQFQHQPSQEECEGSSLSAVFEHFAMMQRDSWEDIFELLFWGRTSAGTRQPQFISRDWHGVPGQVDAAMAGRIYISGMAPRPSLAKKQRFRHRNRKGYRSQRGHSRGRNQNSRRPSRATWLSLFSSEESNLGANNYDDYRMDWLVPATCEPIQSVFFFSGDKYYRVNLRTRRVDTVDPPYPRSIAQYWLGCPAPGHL
Tenascin C, sequence (P24821 23-2201): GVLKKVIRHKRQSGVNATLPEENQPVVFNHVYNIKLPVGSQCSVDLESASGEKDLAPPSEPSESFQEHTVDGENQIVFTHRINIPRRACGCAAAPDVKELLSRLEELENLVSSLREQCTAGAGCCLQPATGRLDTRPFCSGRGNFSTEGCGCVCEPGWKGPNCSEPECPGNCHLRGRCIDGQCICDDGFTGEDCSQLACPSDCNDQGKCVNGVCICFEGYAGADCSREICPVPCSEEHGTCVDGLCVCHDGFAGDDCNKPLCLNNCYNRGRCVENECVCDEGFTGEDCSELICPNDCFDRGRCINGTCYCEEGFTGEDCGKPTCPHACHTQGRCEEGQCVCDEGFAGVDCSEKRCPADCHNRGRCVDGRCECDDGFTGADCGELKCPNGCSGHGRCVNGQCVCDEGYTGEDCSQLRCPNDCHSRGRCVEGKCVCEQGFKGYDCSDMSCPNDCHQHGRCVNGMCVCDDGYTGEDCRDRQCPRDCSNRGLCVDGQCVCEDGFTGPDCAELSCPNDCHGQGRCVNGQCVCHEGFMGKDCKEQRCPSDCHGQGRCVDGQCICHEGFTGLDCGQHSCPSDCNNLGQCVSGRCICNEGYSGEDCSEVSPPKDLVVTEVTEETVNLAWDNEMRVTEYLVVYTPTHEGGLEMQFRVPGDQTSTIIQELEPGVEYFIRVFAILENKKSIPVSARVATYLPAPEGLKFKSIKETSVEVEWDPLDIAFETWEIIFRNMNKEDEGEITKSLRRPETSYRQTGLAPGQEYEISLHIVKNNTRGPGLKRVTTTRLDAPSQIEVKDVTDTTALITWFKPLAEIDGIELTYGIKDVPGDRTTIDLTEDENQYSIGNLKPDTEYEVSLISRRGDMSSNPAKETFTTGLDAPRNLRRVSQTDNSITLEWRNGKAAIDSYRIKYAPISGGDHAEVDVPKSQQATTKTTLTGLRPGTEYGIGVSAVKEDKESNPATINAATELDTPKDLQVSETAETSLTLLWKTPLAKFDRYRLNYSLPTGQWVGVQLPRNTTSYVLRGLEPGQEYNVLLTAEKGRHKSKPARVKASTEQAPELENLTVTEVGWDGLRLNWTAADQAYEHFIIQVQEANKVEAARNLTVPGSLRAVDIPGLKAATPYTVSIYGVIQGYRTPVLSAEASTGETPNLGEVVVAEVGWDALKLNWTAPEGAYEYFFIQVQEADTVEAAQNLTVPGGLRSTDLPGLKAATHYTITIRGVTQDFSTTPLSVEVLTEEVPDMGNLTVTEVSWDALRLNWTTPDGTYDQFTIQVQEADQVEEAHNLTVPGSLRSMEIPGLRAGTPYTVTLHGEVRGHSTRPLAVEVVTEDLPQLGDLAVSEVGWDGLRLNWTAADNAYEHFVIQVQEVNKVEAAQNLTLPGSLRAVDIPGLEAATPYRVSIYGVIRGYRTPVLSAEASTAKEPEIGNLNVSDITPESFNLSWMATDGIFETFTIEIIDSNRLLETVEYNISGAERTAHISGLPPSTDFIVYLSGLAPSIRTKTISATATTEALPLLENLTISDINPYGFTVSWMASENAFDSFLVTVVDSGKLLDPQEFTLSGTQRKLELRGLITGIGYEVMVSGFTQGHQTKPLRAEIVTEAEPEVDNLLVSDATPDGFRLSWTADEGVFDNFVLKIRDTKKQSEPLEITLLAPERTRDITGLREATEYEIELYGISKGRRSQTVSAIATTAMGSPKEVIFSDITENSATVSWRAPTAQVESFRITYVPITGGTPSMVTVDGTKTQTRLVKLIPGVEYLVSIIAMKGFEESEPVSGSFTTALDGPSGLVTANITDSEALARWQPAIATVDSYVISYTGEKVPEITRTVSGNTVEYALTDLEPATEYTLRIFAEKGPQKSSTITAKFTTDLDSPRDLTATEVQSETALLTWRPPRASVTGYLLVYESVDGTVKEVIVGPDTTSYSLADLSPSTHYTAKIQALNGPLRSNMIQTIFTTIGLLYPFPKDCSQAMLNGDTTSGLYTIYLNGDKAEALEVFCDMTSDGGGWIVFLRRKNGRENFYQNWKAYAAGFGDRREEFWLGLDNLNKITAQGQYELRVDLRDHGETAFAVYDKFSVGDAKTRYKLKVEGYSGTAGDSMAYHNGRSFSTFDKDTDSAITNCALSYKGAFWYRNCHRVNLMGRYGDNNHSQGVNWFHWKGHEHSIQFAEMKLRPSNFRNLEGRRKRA

B1: human BMP-2 (ligand)
chain: QAKHKQRKRLKSSCKRHPLYVDFSDVGWNDWIVAPPGYHAFYCHGECPFPLADHLNSTNHAIVQTLVNSVNSKIPKACCVPTELSAISMLYLDENEKVVLKNYQDMVVEGCGCR
By Kd is commonly meant the equilibrium constant for the complex coming apart. A lower Kd goes with a tighter complex. Turning to B1, the Kd turned out to be 94.7 nM with Vitronectin, 25.5 nM with Tenascin C, 19.2 nM with Fibronectin and 47.1 nM with Fibrinogen.

B2: human BMP-2-PlGF2123-144* (ligand)
chain: QAKHKQRKRLKSSCKRHPLYVDFSDVGWNDWIVAPPGYHAFYCHGECPFPLADHLNSTNHAIVQTLVNSVNSKIPKACCVPTELSAISMLYLDENEKVVLKNYQDMVVEGCGCRRRPKGRGKRRREKQRPTDSHL
As to B2, the Kd stood at 2.4 nM in the test with Vitronectin; 6.9 nM in the test with Tenascin C; 11.2 nM in the test with Osteopontin; 5.2 nM with Fibronectin; 2 nM in the test with Fibrinogen.

B3: human PDGF-BB-PlGF2123-144 (ligand)
chain: SLGSLTIAEPAMIAECKTRTEVFEISRRLIDRTNANFLVWPPCVEVQRCSGCCNNRNVQCRPTQVQLRPVQVRKIEIVRKKPIFKKATVTLEDHLACKCETVAAARPVTRRRPKGRGKRRREKQRPTDCHL
As for B3, the Kd turned out to be 1.2 nM with Vitronectin; 6.3 nM with Tenascin C; 3.3 nM with Osteopontin; 4.5 nM with Fibronectin; 3.2 nM with Fibrinogen.
